Legend:
BxPC3 cells [1] = assay: Matrigel invasion assay; assay type: cell-based, human; details: for invasiveness of treated cells decreased to: 40 μM, 20 hrs, normalized to non-treated control
Protocol: Matrigel invasion assay is designed to evaluate the capability of cells to invade into matrigel, an indication of the capacity to metastasize.
The assay was carried out by using bio-coated Matrigel invasion chambers (BD Biosciences, Bedford, Mass.). […] Only cells that could digest the matrix could migrate through the pores. […] The cells were re-suspended in RPMI medium and seeded on the tops of insert wells at 1×10^5 cells/well density and cultured at 37° C. in a humidified CO2 chamber. After 20 hrs, the non-invasive cells were scrubbed from the top of the insert well using a cotton-swap. The invasive cells on the bottom surface were stained with Calcein AM (Invitrogen) and were photographed with an Olympus BX51 microscope. All experiments were performed in triplicate.

HUVECs = assay: In vitro capillary formation assay with conditioned media of treated BxPC3 cells; assay type: cell-based, human; details: for inhibition of tubule formation (endothelial cell angiogenesis): HUVEC in conditioned media from BxPC3 cells treated 24 hrs, 16 h culture
Description: Angiogenesis is another critical step in the progression of pancreatic cancer. Relatively complex and dense micro-vessels are localized in pancreatic cancer tissue. Highly vascular tumors are associated with an increased risk of hepatic metastasis and a poor survival rate (Semenza, 2003). Anti-angiogenesis is a valid strategy when employing pancreatic cancer target therapy. Thus, the in vitro capillary formation assay was used to test the ability of conditioned media of sdAb-treated BxPC3 cells to inhibit HUVECs angiogenesis.
The matrix was then polymerized at 37° C. for 30 min. […] HUVEC cells were then seeded onto the polymerized matrix at 5×10^4 cells per well. The cells were cultured at 37° C. for 16 h then stained with Calcein AM (Invitrogen) for 30 min. Photographs were taken at 100× magnification employing fluorescence microscopy (Olympus BX51). Three fields that were randomly chosen were captured and the lengths of the capillaries in each field were measured.

BxPC3 cells [2] = assay: In vitro MTT cell proliferation assay; assay type: cell-based, human; details: for inhibition of BxPC3 cell proliferation: vs starvation medium control
Protocol: (§1) Cells were left to grow for 72 h in the presence of the sdAb, then assayed for viability. Briefly, 20 μl of MTT reagent (2 mg/ml in PBS) was added to each well. After four hours, the supernatant was removed, adherent cells were lysed, and the crystals were solubilized with 100 μl dimethyl sulfoxide (DMSO, Sigma) per well. The absorbance of the formazan product was measured with a plate reader at a wavelength of 570 nm. After subtracting background absorbance, results were expressed as absorbance.
(§2) The medium aliquots were taken from BxPC3 cultures at the time the proliferation assays (Example 9) were performed. For evaluation of dose-dependence effect, antibodies and gemcitabine were used at concentrations of 0.4-25 μM and 0.4-50 nM, respectively. The media were applied to a 10% sodium dodecyl sulfate-polyacrylamide gel electrophoresis gel (SDS-PAGE) that was supplemented with 1.5 mg/ml gelatin. The gel was run at 150 V until the bromophenol blue dye reached the bottom of the gel. SDS was removed from the gel by washing the gel four times with 2.5% Triton X-100 for 30 min at room temperature with gentle shaking using an orbital shaker (28). The gel was then incubated overnight at 37° C. in development buffer comprising 50 mM Tris-HCl, 0.2 M NaCl, 5 mM CaCl2, 5 mM ZnCl2, 0.02% Brij-35, and 0.05% NaN3 at pH 7.4. Gelatinase-digested gelatine-supplemented gels were stained with Coomassie blue. Clean bands produced by MMP-2 and MMP-9 activity were visible against the blue background after de-staining. The relative activities of the gelatinases were determined by using a densitometer (AlphaView, Fluor Chem SP, Alpha Innotech Corporation, San Leandro, Calif., USA).

MMP-9 = assay: Gelatin zymography of conditioned media from treated BxPC3 cells; assay type: cell-based, human; details: for effect on MMP-9 activity: media from treated BxPC3 cells
Protocol: (§3) Gelatin zymography is used to detect the activity of gelatinases, namely, matrix metalloproteinases MMP-2 and MMP-9 (28).
as §2

MMP-2 = assay: as above; assay type: cell-based, human
Protocol: as §3, §2

CEACAM6 N-domain [3] = target: T1, CEACAM6 N-domain (Homo sapiens, UniProt P40199); assay: Affinity measurement by surface plasmon resonance (Biacore 3000); parameters: made in house; host or cells: E. coli; details: SPR, CEACAM6 immobilized, 1:1 Langmuir binding model
T1 sequence (P40199 35-142 limits assumed): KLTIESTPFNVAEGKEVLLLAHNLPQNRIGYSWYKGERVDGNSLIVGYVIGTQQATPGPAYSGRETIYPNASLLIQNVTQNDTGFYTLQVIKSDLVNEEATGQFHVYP
Protocol: 209 RUs of CEACAM6 and 1746 RUs of Ovalbumin (as reference protein) were immobilized on research grade sensor chip CM5 (GE HealthCare). Immobilizations were performed with an amine-coupling kit (GE Healthcare) and carried out at 50 μg/ml CEACAM6 in 10 mM Acetate, pH 4 (GE Healthcare) and 50 μg/ml of Ovalbumin in 10 mM Acetate, pH 4.5. 120 μL of the sdAb at concentration of 1 nM to 60 nM were injected over the surfaces at a flow rate of 40 μl/min. Analyses were carried out at room temperature in HBS-EP, 10 mM HEPES pH 7.4, 150 mM NaCl, 3 mM EDTA and 0.005% surfactant P20 (GE Healthcare). Regeneration was performed with running buffer (HBS-EP). Data were analyzed with BIAevaluation software 4.1.
One hundred twenty microliters of CEACAM6 recombinant protein at concentration of 0.1 nM to 200 nM was injected over the surfaces at a flow rate of 40 μl min-1. Analyses were carried out at room temperature in HBS-EP comprising 10 mM HEPES pH 7.4, 150 mM NaCl, 3 mM EDTA and 0.005% surfactant P20 (GE Healthcare). Regeneration was performed with HBS-EP used as running buffer. The data were analyzed by using BIAevaluation software 4.1.

LS174T cells = assay: Flow cytometry with FITC-labelled sdAb; assay type: cell-based, human; details: FITC-labelled 2A3, 5 μg/ml, fixed LS174 cells, FACS
Protocol: (§4) For flow cytometry, purified sdAbs were labelled with FITC as instructed by the manufacturer (Invitrogen). Different cell lines were grown as a monolayer until they were approximately 80% confluent. After fixing by 10% formaldehyde in PBS for 10 minutes, cells were washed with PBS then incubated at room temperature with different FITC-labelled sdAbs. After one hour of incubation, cells were washed twice with PBS to remove unbound sdAbs and the cells were analyzed by flow cytometry using a FACS Canto flow cytometer (BD Bio-sciences).

A549 cells [4] = assay: Flow cytometry with FITC-labelled sdAb; assay type: cell-based, human; details: FITC-labelled 2A3, 5 μg/ml, fixed A549 cells, FACS
Protocol: as §4

BxPC3 cells [5] = assay: Flow cytometry with FITC-labelled sdAb; assay type: cell-based, human; details: FITC-labelled 2A3, 5 μg/ml, fixed BxPC3 cells, FACS
Protocol: as §4

CEACAM6 N-domain [6] = target: T1, CEACAM6 N-domain
Protocol: Maxisorb 96-well microtiter plates (Nunc) were coated with 2 μg/ml recombinant CEACAM6 protein (N-domain) overnight at 4° C. in phosphate-buffered saline (PBS). 2% fat-free dry milk solution in PBS was used for 2 h at room temperature to block the residual protein-binding sites in the wells. Serial diluted serum or soluble recombinant sdAbs were added to the wells, which were incubated at 37° C. for 24 hr. Detection of llama IgGs and sdAb was performed with goat anti-llama IgG (Bethyl Lab, Montgomery, Tex.), horseradish peroxidase anti-goat conjugate (Cedarlane, Burlington, ON) and the corresponding substrate KPL for peroxidase. The reaction was stopped by adding 1 M H3PO4 and the absorption at 405 nm was measured.
The sdAb was incubated in mouse serum and the residual binding capacity was measured by ELISA then compared with the same antibody that was not incubated in serum.

LS174 cells = assay: In vitro MTT cell proliferation assay; assay type: cell-based, human; details: 125 μg/ml antibody
Protocol: as §1

A549 cells [7] = assay: In vitro MTT cell proliferation assay; assay type: cell-based, human; details: 125 μg/ml antibody
Protocol: as §1

BxPC3 tumor [8] = assay: Ex vivo biodistribution (γ-counter); details: 64Cu-DOTA-labelled, 24 hr p.i., n=4
Protocol: Blood, tumor, major organs, and tissues were collected and wet-weighed. The radioactivity in the wet whole tissue was measured with a γ-counter (Packard). The results were expressed as percentage of injected dose per gram of tissue (% ID/g) for a group of 4 animals. For each mouse, the radioactivity of the tissue samples was calibrated against a known aliquot of the injected radiotracer and normalized to a body mass of 20 g. Values were expressed as mean±SD (n=4/group).

BxPC3 tumor [9] = assay: Small animal PET imaging and ROI analysis
Protocol: Subcutaneous BxPC3 tumor model was established in 5 to 6-week-old female athymic nude mice obtained from Harlan (Indianapolis, Ind.); 5×10^6 cells suspended in 50 μl of phosphate buffered saline (PBS) were injected and the mice underwent small animal PET studies when the tumor volume reached 100-200 mm^3 (3-4 weeks after inoculation). PET scans and image analysis were performed using an Inveon microPET scanner (Siemens Medical Solutions). About 3.7 MBq (100 μCi/5 μg) of ^64Cu-DOTA-Abs were administered via tail vein injection under isoflurane anesthesia. Five-minute static PET images were acquired at different time points post-injection (p.i.; n=4/group). The images were reconstructed using a two-dimensional ordered-subset expectation maximization (2D OSEM) algorithm, and no correction was applied for attenuation or scattering. For each scan, regions of interest (ROIs) were drawn over the tumor and major organs using vendor software (ASI Pro 5.2.4.0) on decay-corrected whole-body coronal images. The radioactivity concentrations (accumulation) within the tumors, muscle, liver, and kidneys were obtained from mean pixel values within the multiple ROI volume and then converted to MBq per milliliter per minute using the calibration factor determined for the Inveon PET system. […]

UM-SCC-22B cells = assay: Cell uptake of 64Cu-labelled tracer; assay type: cell-based, human; details: 22B cells compared with BxPC3 cells
Protocol: (§5) Cell uptake, internalization, and efflux of ^64Cu-DOTA-2A3-Fc were performed with BxPC3 and UM-SCC-22B tumor cells (negative control). For cell uptake, the cells were seeded into 24-well plates at a density of 1×10^5 cells per well and incubated with 18.5 kBq (0.5 μCi/5 ng)/well of ^64Cu-labelled tracer at 37° C. for 15, 30, 60, and 120 min. The cells were then washed three times with chilled PBS and lysed with 500 μL 0.1 M NaOH. For efflux studies, about 18.5 kBq (0.5 μCi)/well of ^64Cu-DOTA-2A3-mFc were first incubated with BxPC3 cells in 24-well plates for 2 h at 37° C. The cells were washed three times with chilled PBS and allowed to stand with fresh buffer. At various time points, the medium was removed and the cells washed three times with chilled PBS. The cells were then lysed with 500 μL 0.1 M NaOH. The cell lysate was collected and the remaining radioactivity was measured in a γ counter (Packard, Meriden, Conn.). The cell uptake, and efflux were expressed as the percentage of the added dose (% AD) after decay correction. All experiments were performed with triplicate wells.

BxPC3 cells [10] = assay: Cell uptake and efflux of 64Cu-labelled tracer; assay type: cell-based, human
Protocol: as §5

With `Nc1ccn([C@@H]2O[C@H](CO)[C@@H](O)C2(F)F)c(=O)n1` [gemcitabine, reference compound] the “effect on invasion” value (BxPC3 cells [1]) was “did not affect angiogenesis or invasion”, the “effect on angiogenesis” value (HUVECs; culture medium from treated BxPC3 cells) was “inhibitory effects on angiogenesis were not seen” and the IC50 (BxPC3 cells [2]; Homo sapiens, BXPC-3, 72 h, MTT, n=5) was 12 nM. For the same molecule, the “increase of MMP-9 activity” value (MMP-9; at high dosages) was about 10%, the “effect on MMP-9 activity” value (MMP-9) was “slightly increased MMP-9 activity” and the “increase of MMP-2 activity” value (MMP-2; at high dosages) was about 10%. The “effect on MMP-2 activity” value (MMP-2; media from treated BxPC3 cells) was “does not affect MMP-2 and MMP-9 activity”.

B1: 2A3: anti-CEACAM6 llama single domain antibody (sdAb), SEQ ID NO:4 (protein)
VHH: QVKLEESGGGLVQAGGSLRLSCRTSGRTNSVYTMGWFRQAPGKEREFVAQIMWGAGTNTHYADSVKGRFTISRDSAESTVYLQMNSLKPEDTAVYYCAANRGIPIAGRQYDYWGQGTQVTVSS
modifications: Anti-CEACAM6 sdAb
In the case of B1, the “dissociation rate (kd)” value (CEACAM6 N-domain [3]) is reported as 0.0053 s⁻¹, the “association rate (ka)” value (CEACAM6 N-domain [3]; sdAb 1 nM to 60 nM, room temperature) is reported as 1.1e+06 M⁻¹ s⁻¹ and the cells stained positive (LS174T cells) is reported as “about 16%”. For the same molecule, the cells stained positive (A549 cells [4]) was about 20%, the cells stained positive (BxPC3 cells [5]) was “approximately 90%” and the “BxPC3 invasiveness reduced by” value (BxPC3 cells [1]) was about 73%. For the same molecule, the “invasiveness of treated cells decreased to” value (BxPC3 cells [1]) was 27.4±8.4%, the “inhibition of tubule formation (endothelial cell angiogenesis)” value (HUVECs) was 21% and the “inhibition of BxPC3 cell proliferation” value (BxPC3 cells [2]; 50 μg/ml) was “approximately 27%”. The “effect on BxPC3 proliferation” value (BxPC3 cells [2]; 125 μg/ml antibody, vs irrelevant sdAb BSA12, p<0.0001) was “inhibits BxPC3 proliferation in vitro”, the “MMP-9 activity reduced to” value (MMP-9; 5 μM dosage) was 25% and the “culture medium MMP-9 activity down-regulated by” value (MMP-9; 2A3-treated BxPC3 compared to non-treated cells) was 33%. The “effect on MMP-9 activity” value (MMP-9) was “reduce the activity of MMP-9”, the “effect on MMP-2 activity” value (MMP-2; 5 μM dosage) was “did not influence MMP-2 activity significantly” and the “effect on MMP-2 activity” value (MMP-2; media from treated BxPC3 cells) was “not MMP-2 activity”. For the same molecule, the “residual binding capacity after incubation in mouse serum” value (CEACAM6 N-domain [6]) was “retained its full binding capacity”, the “effect on LS174 growth” value (LS174 cells) was “little effect on their growth” and the “effect on A549 growth” value (A549 cells [7]) was “little effect on their growth”.

B2: 2A3-Fc: 2A3 sdAb fused to the mouse Fc2b fragment; heavy chain antibody (protein)
chain: B1 VHH
modifications: left off: a dimerising Fc or GST
notes: heavy chain antibody
In the case of B2, the “BxPC3 tumor uptake, ex vivo” value (BxPC3 tumor [8]) is reported as 95.4±29.3 % ID/g, the “invasiveness of treated cells decreased to” value (BxPC3 cells [1]) is reported as 27.4±4.8% and the “inhibition of tubule formation (endothelial cell angiogenesis)” value (HUVECs) is reported as 49%. The “inhibition of BxPC3 cell proliferation” value (BxPC3 cells [2]; 360 μg/ml) was 55%, the “effect on MMP-9 activity” value (MMP-9) was “reduce the activity of MMP-9” and the “effect on MMP-2 activity” value (MMP-2; media from treated BxPC3 cells) was “not MMP-2 activity”. The tumor uptake (BxPC3 tumor [9]; 64Cu-DOTA-labelled, PET ROI, 24 hr p.i.) was 98.2±6.12 % ID/g and the “share of the total injected dose distributed to tumor region” value (BxPC3 tumor [9]; 24 hr after injection, average tumor size 184 mm^3) was “Roughly 18%”.

B3: ^64Cu-DOTA-2A3-Fc: 2A3-Fc conjugated with DOTA and labelled with 64Cu, PET tracer (conjugate)
chain: B1 VHH
modifications: left off: a dimerising Fc or GST
For B3, the “cell uptake” value (UM-SCC-22B cells) was “much lower uptake”, the total cell uptake (BxPC3 cells [10]; 2 hr incubation, 37° C.) was 10.13±0.05 % of total added dose and the “radioactivity retained on the cells (efflux)” value (BxPC3 cells [10]; after 2 h incubation in medium devoid of radioactivity) was “more than 65%”.

From patent publication US9066986B2, “Anti-CEACAM6 antibodies and uses thereof” (National Research Council of Canada, priority 2010, dated 2015)
